Target: wild-type PlaF (phospholipase A1 PlaF, PA2949) from Pseudomonas aeruginosa (Pseudomonas aeruginosa)
Assay: cross-linking

wild-type PlaF (phospholipase A1 PlaF, PA2949) from Pseudomonas aeruginosa (enzyme)
more dimer in the C10-treated sample than in the untreated one: 70%
stoichiometry N: 2

From article PMC10976570
